Data: the DeepSol protein solubility set

Test: soluble on expression in E. coli; label from the status in PepcDB or PDB records
In the case of “AHHHHHHGSSMELFEVHEGKAKVLVPKAKTIYDSPVFYNPRMAPNRDVVVLLLNVLKPKIVLDALSATGIRGIRFALETPAEEIWMNDINELAYELMKKNVLLNFKGTLKENAKRAIFEGEKTIVINNDDANRLMAEKHRYFHFIDLDPFGSPMEFLDTALRSVKRKGILGVTATDGAPLCGAHPKACLRKYLAVPLRGELCHEVGTRILVGVIARYAAKYDLGMEVLLAYYKDHYFRAFVKLKDGAKKGDETLENLGYVYFDEKTGRFEVEKSFLSTRPNAYGPLWLGPLKNEKVVGEMLELLVSGFEVANYREVLKLLHMLHEELDIPLFYDTHALGKRLKIEPKKLGEIIKELKSMGYEATRTHFSPTGIKTNAPYEVFVEVMRKN”, the “soluble on expression in E. coli” value is reported as “soluble”. In the case of “MVRRRTASPSPSAPVRSAPRPAAQSSFAAPPPRPAAAAPAYHPPAAPTPMGAPMGAPSQGPGLMKQMAATAGGVAIGSAVGHAVGGMFTGGGSSHAEQAPAAAAAPAGAPQASGYSQPCEFEWRQFVDCAQNQSDVSLCNGFNDIFKQCKARYA”, the “soluble on expression in E. coli” value is reported as “not soluble”. For “MSLKTKYIFVTGGVVSSLGKGITAASLGRLLKNRGLKVSIQKFDPYINVDPGTMSPYQHGEVFVTDDGAETDLDLGHYERFIDENLSKNSNVTTGKVYWSVINKERRGDYLGGTVQVIPHITNELKERVYRVAKEKDVDVVITEIGGTVGDIESLPFLEAIRQIKYEVGFGNSCFIHVTLLPYLRKAGEIKTKPTQHSVKELRGIGIQPDIIVCRTEKEISKDVRSKIGLFCNIDGDSVISNLDAENLYEVPLMLHDQGLDSLVCKKLELECQEVDNSEWESMVKNIKSLSGEVTIGLVGKYVELHDAYISVVESLNHGGFANNVSVNVKWINSEEVTKDNVDSVLSDVDGILVPGGFGDRGIEGKIEAIRWARENKIPFFGICLGMQCAVIEYARNVLGLEGAHSSEIDPQTKYPVIDLMPDQKDIDDKGGTMRLGLYACKLSKDTNAYDAYEEEVIYERHRHRYEFNNEFRKRLTEEGLILAGTSPDDRLVEIVEIKDHPWFVGVQFHPEFKSRPNRPHALFRDFIKVACTVKEKEGHHHHHH”, the “soluble on expression in E. coli” value was “soluble”. In the case of “MSLNHTAVNTAQAIILRDLVDALLFEDIAGIVSNSEITKENGQTLLIYERETQQIKIPVYFSALNMFRYESSQPITIEGRVSKQPLTAAEFWQTIANMNCDLSHEWEVARVEEGLTTAATQLAKQLSELDLASHPFVMSEQFASLKDRPFHPLAKEKRGLREADYQVYQAELNQSFPLMVAAVKKTHMIHGDTANIDELENLTVPIKEQATDMLNDQGLSIDDYVLFPVHPWQYQHILPNVFAKEISEKLVVLLPLKFGDYLSSSSMRSLIDIGAPYNHVKVPFAMQSLGALRLTPTRYMKNGEQAEQLLRQLIEKDEALAKYVMVCDETAWWSYMGQDNDIFKDQLGHLTVQLRKYPEVLAKNDTQQLVSMAALAANDRTLYQMICGKDNISKNDVMTLFEDIAQVFLKVTLSFMQYGALPELHGQNILLSFEDGRVQKCVLRDHDTVRIYKPWLTAHQLSLPKYVVREDTPNTLINEDLETFFAYFQTLAVSVNLYAIIDAIQDLFGVSEHELMSLLKQILKNEVATISWVTTDQLAVRHILFDKQTWPFKQILLPLLYQRDSGGGSMPSGLTTVPNPMVTYDEGHHHHHH”, the “soluble on expression in E. coli” value is reported as “soluble”. With “MSLLHERINFNPKVDVEVKLPERLEEGKITEVNVVVRNRGSKGILEVKIEGEDLIGEAKRVKLDSGEKLVKLSVKPLNKGDKVLKVKALFEDELNLYYSEVYEAEFSIQVLPSVDSIREAAREEVSIRMREALKKGKIGVESTELYGLREYLPGDDVRRIDWKATTRLRKLIVKEFMRESEGDVYIVLDATREMRKRIRRSKIDYASSLVLYIATILIRSNKRVGLILFSEDEFKVVKPEKGSEQLERIRETLRFKPLKGLTSFKGEVGRLKTWDFLRKLFPRKRRGVEEALLSIRNPSYVILITDLMSNTPRLYSAVSMVKKKHKVIILSPNPVLFYSGELDEETLRFLYEKYRERERILRKFNSLVPTVDLGPSDYGREVLEVLEGEGHHHHHH” the “soluble on expression in E. coli” value was “not soluble”. In the case of “MGSDKIHHHHHHMNEIAEVLPESMKNALSEIPEQQWLEIEEVRIRINRPVELIRRGQPVYLSYAGTAEDAHLILSRLSNYSMYTLEEELKKGYVTIRGGHRVGLAGRVITENGGVKGLRDIASFNIRIARQKLGIAEPLLPYLYQNSWLNTLIIGPPQTGKTTLLRDLARLSSTGKKNMLPVKTGIVDERSEIAGCLRGIPQHQFGQRIDVLDACPKAEGLMMMIRSMSPEVMIVDEIGRMEDTDALLEALHAGVSVIVSAHGWSISDLMKRPSLKRLWEERAFDRYLELSRAKGPGTVSQIYDKDGNVLSRTTGVKTC”, the “soluble on expression in E. coli” value is reported as “not soluble”. In the case of “MGSDKIHHHHHHMTSGLHISTSFDSGAIEVDALDHADDIRLRIRADSHADFRQWFHFRLQGAAGQACRLQFLNAGDCTYPDGWRDYRAVASYDRANWFRVPTRFDGQVLTVEFTPQHDSVWFAYFEPYPEERHLSLLATCQRSPLAKLSHLGSTVDGRDMTRVTVGQPGPGKKTIWMIARQHPGESMAEWFCEGVLQRLTGTGMWAHDPVARKLLESAVFHIVPNMNPDGSARGNLRTNAAGANLNREWMTPSPETSPEVWHVRRAIEATGCDLFFDIHGDEGLPYNFVAGSEMLPSFSEKQREEQTRFIEAFKRVTPDFQDVHGYAASKYNADALKLASKYVGHTFGCLSLTLEMPFKDNADLPDATVGWNGARSALLGTAMLEAILNFLG”, the “soluble on expression in E. coli” value is reported as “not soluble”. For “MRILEKNHGKSRVRFNCTHPIKPAAWVLAANVSLLGCAYAATDENNSQKKERENNPANTTITVTASPLRHAGVTEDSGSYNTSSMSTATGLNISARETPQSVSVLTKQRMRDQNLNSVESAVNNITGISVRQFDSDRFGFTSRGMAVNNVMRDGVATFYDTRFNYGDNTLDTDMFDRIEVVRGAAGLMAGPGNPSAVINLVRKRPTQDFRGSVSAGVGSWEKWRTALDISGPLNSEGSVRGRFVTAYEDKNSFVNRYDQSKNPFYGILEIDVTPNTLFTFGADTQRTLTRGGMFGGLPLFNSAGGRTNYAQSATTASDWASAETRTQTLFSSLQHNFDNGWNIKGTFTFDNDKLRQDVMWPTGYPDPQTNIGMRPGSLSLIDGARRQQNYDIQVNGQYSLFGRQHQLGLGWNRQRQNIDNDYYLATCNATRTCPDLGDFTQPGWQYPKPVWSDKRAYGSKGRSDQSSQYVVTQLSLIDPLTLILGGRLTTWETRGDNFGTPQNARYKNEFVPYSGLTYDINRDLSVYTSYTEIFNPENRRDRNNTLLAPVSGQNYEAGLKGVAFDNSLDYSLAVFEIRQNNMPVPDTTAPRLPDNSQPYFAVDGTKTRGFEAEVSGKMTEDWNISAGYTQYNVKLPSSNTQTPVTPVTPRKVLKLFTTYTLPGQLSDLTLGGGVNWQSQIARNLSSPIGIQQIGQGSFAIYSLMSRYQFTPQLSLTVNLDNLFNQHYYTQIGQYNQYLLGAPRNVDATVRYTF”, the “soluble on expression in E. coli” value was “not soluble”. In the case of “MKIAIGSDHAGFPLKEKIKEFLKGEGHKVIDVGTHAQESTHYPIYAKEVVRAIRSGKAERGILICGTGIGMSITANKFRGIRAALCTNEYMARMSRLHNDANVLCLGERVLGVELALSIVKVWLETPFEGGRHLKRLEIISEIEDEICGENIPR”, the “soluble on expression in E. coli” value is reported as “soluble”. With “MSKSVSIPQALSDLKRTSLRRLSSARGVGNKKTVVSTSTPLSGFVILVEREEKVVRLYGTAAERAGLSIGDEIVGVNDMKIEGKSYEEVTTYIQECIRRKIIQLKVRRRALEIPAENEASVFNCTNSNRMITDAYLVSVDKDHIKEVTKRLKK” the “soluble on expression in E. coli” value was “not soluble”. With “MGSDKIHHHHHHMKLDPKLAQDIVNKMMTQIPYNVNMMDDQGYIIASGDPQRLNTLHVGAVAAINQQTTLPMHDSYGDHGQPGVNMPIVFNDQIIGVIGITGDPEKVTPLASLLRVATELLLDQNQHNLQEKQYETTLNRFLYHWSQVTQQIDTNTNLLLEAQQLGIDILKPRAAIVLPKQTLPIGLLDATDFQFDLDTTTLIVLTALPATIARFTTYCQTGQHRLGIGLFDRNVGNSVRQARQTLRISQIFQRPDFIHYSQIAFIQALLDGHLHVTDLQQRFQKLASTANGRELIKTLGMFVRLNTNVLQTAAALHIHRNTLSYRLDRLQQIFQLDPHQTLDLFTLYVGYLYFKADK” the “soluble on expression in E. coli” value was “not soluble”. In the case of “MPSPTVTSPQVAVNDIGSSEDFLAAIDKTIKYFNDGDIVEGTIVKVDRDEVLLDIGYKTEGVIPARELSIKHDVDPNEVVSVGDEVEALVLTKEDKEGRLILSKKRAQYERAWGTIEALKEKDEAVKGTVIEVVKGGLILDIGLRGFLPASLVEMRRVRDLQPYIGKEIEAKIIELDKNRNNVVLSRRAWLEQTQSEVRSEFLNNLQKGTIRKGVVSSIVNFGAFVDLGGVDGLVHVSELSWKHIDHPSEVVQVGDEVTVEVLDVDMDRERVSLSLKATQEDPWRHFARTHAIGQIVPGKVTKLVPFGAFVRVEEGIEGLVHISELAERHVEVPDQVVAVGDDAMVKVIDIDLERRRISLSLKQANEDYTEEFDPAKYGMADSYDEQGNYIFPEGFDAETNEWLEGFEKQRAEWEARYAEAERRHKMHTAQMEKFAAAETAGRGADDQSSASSAPSEKTAGGSLASDAQLAALREKLAGSALEHHHHHH”, the “soluble on expression in E. coli” value is reported as “not soluble”. With “MALETPTPGPPREGQSPASQAGTQHPPAQATAHSQSSPEFKGSLASLSDSLGVSVMATDQDSYSTSSTEEELEQFSSPSVKKKPSMILGKARHRLSFASFSSMFHAFLSNNRKLYKKVVELAQDKGSYFGSLVQDYKVYSLEMMARQTSSTEMLQEIRTMMTQLKSYLLQSTELKALVDPALHSEEELEAIVESALYKCVLKPLKEAINSCLHQIHSKDGSLQQLKENQLVILATTTTDLGVTTSVPEVPMMEKILQKFTSMHKAYSPEKKISILLKTCKLIYDSMALGNPGKPYGADDFLPVLMYVLARSNLTEMLLNVEYMMELMDPALQLGEGSYYLTTTYGALEHIKSYDKITVTRQLSVEVQDSIHRWERRRTLNKARASRSSVQDFICVSYLEPEQQARTLASRADTQAQALCAQCAEKFAVERPQAHRLFVLVDGRCFQLADDALPHCIKGYLLRSEPKRDFHFVYRPLDGGGGGGGSPPCLVVREPNFL” the “soluble on expression in E. coli” value was “soluble”. With “SAVPAILQVITESTGLGFAAVARVTEDSWTACAVLDNLGFGLKPGGELELISTICHEIRASHKPVVIDHVAEDELFCAHHTPRRYNFQSYISIPIFLTDGSFFGTICALDPKPAKLTGTPIEAMMVSFARLLALQIEAEENMQRVQ” the “soluble on expression in E. coli” value was “soluble”. For “DGNEIIGDPLRKAAKLIDKGYIVAIKGIGGIHLACDATREDVVAELRKRIFRPQKPFAIMAKDLETVRTFAYISPEEEEELTSYRRPIVALKKKEPFPLPENLAPGLHTIGVMLPYAGTHYILFHWSKTPVYVMTSANFPGMPMIKDNEEAFEKLRDVADYLLLHNRRIPNRADDSVVRFVDGRRAV”, the “soluble on expression in E. coli” value was “not soluble”. With “MYDTEIPYEGKISIYTYFCKECGYRKTEVYSDEKRDPKKITIRIENPDDLRIIVYRSRRADVYIPEMEASIDSAEYSNGEITTIEGIIYRIGEKLDLLAADDQNNKKIASLRKRIDGIINGKFESFTLIIMDESGKSVVHS” the “soluble on expression in E. coli” value was “not soluble”. With “MRKSKRERQRLLQETIRENPFITDEELAEKFSVSVQTIRLDRLELSIPELRERIKNVARQSFADKVRALPLEEVIGDIIDIEPDASAISIFDVKEEHVFRRTRIARGHHLFAQANSLAVAVIHDELALTAKATIRFVRQVKEGERVVAKAKVTGKTAHGRTIVEVNSYVGQELVFSGTFEMYRSNIEKKDGDSNEYRG” the “soluble on expression in E. coli” value was “not soluble”.
